Test results taken from patent US20260209362A1 (VIB VZW, published 2026).
Substitutions are numbered along the chain they refer to.

B1: anti-IL-12Rβ2 VHH clone 3CAHS39 (clone ID 20393) (VHH, not shown: small tags and cut ends)
VHH: QVQLQESGGGLVQAGGSLRLSCAASGRTINAYIMGWFRQAPGKEREFVAAVSGSGGSTYYADSVKGRFTISRDNAKNTVNLQMDNLRSEDTDVYYCAATYESVYLQNPGQYDYWGQGTQVTVSS
notes: periplasmic extract
B2: anti-IL-12Rβ2 VHH clone 3CAHS53 (clone ID 20397) (VHH, not shown: small tags and cut ends)
VHH: B1 VHH with Q13E, A14P, N74S
notes: periplasmic extract
B3: anti-IL-12Rβ2 VHH clone 3CAHS43 (clone ID 20395) (VHH, not shown: small tags and cut ends)
VHH: B1 VHH with L11S, Q106R
notes: periplasmic extract
B4: anti-IL-12Rβ2 VHH clone 3CAHS124 (clone ID 20400) (VHH, not shown: small tags and cut ends)
VHH: B1 VHH with A14P
notes: periplasmic extract
B5: anti-IL-12Rβ2 VHH clone 3CAHS52 (clone ID 20396) (VHH, not shown: small tags and cut ends)
VHH: B1 VHH with L11S
notes: periplasmic extract
B6: anti-IL-12Rβ2 VHH clone 3CAHS150 (clone ID 20403) (VHH, not shown: small tags and cut ends)
VHH: B1 VHH with L11S, I33V, V51I
notes: periplasmic extract
B7: anti-IL-12Rβ2 VHH clone 3CRH59 (clone ID 20385) (VHH, not shown: small tags and cut ends)
VHH: QVQLQESGGGLVQPGGSLRLSCTASGFAFSSYWMYWVRQTPGKGFEWVSVVNPGGEITYYGDSMEDRFTISRDNAKNTLYLQMNSLKPEDTGLYYCARDRTTIDYTRTYYRGGQGTQVTVSS
notes: periplasmic extract
B8: anti-IL-12Rβ2 VHH clone 3CAHS142 (clone ID 20401) (VHH, not shown: small tags and cut ends)
VHH: QVQLQESGGGLVQAGESLTLSCIASGVIKDYAMGWFRQAPGKEREFVAAISWSGVSIYYADSVKGRFTISRDNAKNTVYLQMNSLEPEDTAVYYCAGTEGAYTVAGGSTFGYDMDYWGKGTQVTVSS
notes: periplasmic extract
B9: anti-IL-12Rβ2 VHH clone 2CRH41 (clone ID 20365) (VHH, not shown: small tags and cut ends)
VHH: QVQLQESGGGLVQPGGSLRLSCTASGFAFSSYWMYWVRQSPEKGFEWVSVVDTDGGITYYADSVKGRFTISRDNAKNTLYLQMNSLKPQDTALYYCARDRTTLEYTRTYYRTGQGTQVTVSS
notes: periplasmic extract
B10: anti-IL-12Rβ2 VHH clone 3CRHS163 (clone ID 20438) (VHH, not shown: small tags and cut ends)
VHH: B9 VHH with S31T, V37I, D52N, D54G, G56D, Q89E, L103M, E104S, T112G
notes: periplasmic extract
B11: anti-IL-12Rβ2 VHH clone 2CRH80 (clone ID 20371) (VHH, not shown: small tags and cut ends)
VHH: QVQLQESGGGLVQPGGSLRLSCAASGFTFSTSGMHWFRQAPGKGLEWVSSIGIIVGSSYYASSVKGRFTISRDNAKNTLYLHMNSLKSEDTAVYYCSKDVTGSSRGQGTQVTVSS
notes: periplasmic extract
B12: anti-IL-12Rβ2 VHH clone 3CRH43 (clone ID 20382) (VHH, not shown: small tags and cut ends)
VHH: B11 VHH with L11S, G56D, T78I, L79V, H82Q, V100P
notes: periplasmic extract
B13: anti-IL-12Rβ2 VHH clone 3CRHS128 (clone ID 20432) (VHH, not shown: small tags and cut ends)
VHH: B11 VHH with I53A, I54T, G56D, S57N, H82L, V100P
notes: periplasmic extract
B14: anti-IL-12Rβ2 VHH clone 3CRHS109 (clone ID 20430) (VHH, not shown: small tags and cut ends)
VHH: B11 VHH with G56D
notes: periplasmic extract
B15: anti-IL-12Rβ2 VHH clone 3CRH45 (clone ID 20383) (VHH, not shown: small tags and cut ends)
VHH: B11 VHH with S32F, V55D, G56D, S57N, H82Q, V100T
notes: periplasmic extract
B16: anti-IL-12Rβ2 VHH clone 3CRH14 (clone ID 20374) (VHH, not shown: small tags and cut ends)
VHH: B11 VHH with G56D, S62D, Y80F, H82Q, V100P
notes: periplasmic extract
B17: anti-IL-12Rβ2 VHH clone 3CRH38 (clone ID 20381) (VHH, not shown: small tags and cut ends)
VHH: QVQLQESGGGLVQAGGSLVLSCAASGSAALIFLMSWYRQAPGKQRELVAEVSRGGSTTYADSVEGRFTISRDNAKNIVDLQMNSLKPEDTAVYYCKADQNYGDSLRSSWGRGTQVTVSS
notes: periplasmic extract
B18: anti-IL-12Rβ2 VHH clone 3CRHS2 (clone ID 20413) (VHH, not shown: small tags and cut ends)
VHH: B17 VHH with A14L, V19T, G54Y, N100Y
notes: periplasmic extract
B19: anti-IL-12Rβ2 VHH clone 2CRH53 (clone ID 20366) (VHH, not shown: small tags and cut ends)
VHH: B17 VHH with G54Y, N76D, N100Y
notes: periplasmic extract
B20: anti-IL-12Rβ2 VHH clone 3CRHS142 (clone ID 20434) (VHH, not shown: small tags and cut ends)
VHH: QVQLQESGGGLVQAGGSLRLSCVSSQTLVGIEAMGWYRQAPGKQRELVALITLNGGTFYADSVKGRFTISRDVAEHMLYLEMNSLNPEDTAVYFCVAGVESDNEEPTYWGQGTQVTVSS
notes: periplasmic extract
B21: anti-IL-12Rβ2 VHH clone 3CRHS166 (clone ID 20439) (VHH, not shown: small tags and cut ends)
VHH: B20 VHH with A14S
notes: periplasmic extract
B22: anti-IL-12Rβ2 VHH clone 3CRHS67 (clone ID 20424) (VHH, not shown: small tags and cut ends)
VHH: B20 VHH with R19T
notes: periplasmic extract
B23: anti-IL-12Rβ2 VHH clone 3CRHS156 (clone ID 20437) (VHH, not shown: small tags and cut ends)
VHH: B20 VHH with A14S, T68A
notes: periplasmic extract
B24: anti-IL-12Rβ2 VHH clone 2CRHS4 (clone ID 20411) (VHH, not shown: small tags and cut ends)
VHH: B20 VHH with A14P, E75G
notes: periplasmic extract
B25: anti-IL-12Rβ2 VHH clone 3CAHS170 (clone ID 20406) (VHH, not shown: small tags and cut ends)
VHH: QVQLQESGGGLVQAGGSLRLSCVASGRTFSSYAMGWFRQGPGKEREFVAAISWSGVSIYYADSVKGRFTISRDNAKNTVYLQMNSLEPEDTAVYYCAGTEGAYTVAGGSTFGYDMDYWGKGTQVTVSS
notes: periplasmic extract
B26: anti-IL-12Rβ2 VHH clone 3CAH48 (clone ID 20360) (VHH, not shown: small tags and cut ends)
VHH: B25 VHH with V23A, I58T, E87R, G98A
notes: periplasmic extract
B27: anti-IL-12Rβ2 VHH clone 2CAH27 (clone ID 20354) (VHH, not shown: small tags and cut ends)
VHH: B25 VHH with L11S, A14S
notes: periplasmic extract

target: T1, biotinylated recombinant human IL-12Rβ2 (human, UniProt Q99665 24-622, random biotinylated); experiment: ELISA, P.E., biotinylated antigen
T1 construct: Recombinant protein produced in-house; also called hIL-12RB2; human IL-12RB2
T1 sequence: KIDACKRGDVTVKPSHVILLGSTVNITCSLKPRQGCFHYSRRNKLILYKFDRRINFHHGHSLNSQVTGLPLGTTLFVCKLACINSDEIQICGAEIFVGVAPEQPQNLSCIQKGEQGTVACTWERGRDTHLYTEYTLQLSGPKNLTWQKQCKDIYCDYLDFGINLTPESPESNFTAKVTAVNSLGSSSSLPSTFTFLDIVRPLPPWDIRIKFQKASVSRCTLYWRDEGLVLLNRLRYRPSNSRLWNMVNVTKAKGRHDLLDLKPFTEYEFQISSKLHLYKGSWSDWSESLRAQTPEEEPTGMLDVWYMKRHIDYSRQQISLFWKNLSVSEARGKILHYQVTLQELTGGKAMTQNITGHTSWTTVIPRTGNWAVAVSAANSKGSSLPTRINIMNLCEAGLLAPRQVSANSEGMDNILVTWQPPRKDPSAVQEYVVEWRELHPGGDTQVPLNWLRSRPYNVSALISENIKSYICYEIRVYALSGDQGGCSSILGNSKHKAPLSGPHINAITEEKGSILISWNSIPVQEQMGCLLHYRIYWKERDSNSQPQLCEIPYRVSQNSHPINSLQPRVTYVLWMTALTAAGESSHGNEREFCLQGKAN

Row | Binder | ELISA hIL-12RB2/control
1 | B1 | 4.73
2 | B2 | 6.58
3 | B3 | 8.23
4 | B4 | 5.67
5 | B5 | 10
6 | B6 | 4.54
7 | B7 | 15.9
8 | B8 | 4.98
9 | B9 | 3.8
10 | B10 | 3.58
11 | B11 | 5.01
12 | B12 | 4.75
13 | B13 | 3.65
14 | B14 | 3.18
15 | B15 | 4.58
16 | B16 | 5.51
17 | B17 | 11.8
18 | B18 | 5.59
19 | B19 | 5.51
20 | B20 | 23.7
21 | B21 | 23.2
22 | B22 | 18.3
23 | B23 | 24.5
24 | B24 | 12.5
25 | B25 | 5.87
26 | B26 | 9.56
27 | B27 | 3.84

target: T2, biotinylated recombinant mouse IL-12Rβ2 (mouse, UniProt P97378 24-637, random biotinylated); experiment: ELISA, P.E., biotinylated antigen
T2 construct: Recombinant protein produced in-house; also called mIL-12RB2; mouse IL-12RB2
T2 sequence: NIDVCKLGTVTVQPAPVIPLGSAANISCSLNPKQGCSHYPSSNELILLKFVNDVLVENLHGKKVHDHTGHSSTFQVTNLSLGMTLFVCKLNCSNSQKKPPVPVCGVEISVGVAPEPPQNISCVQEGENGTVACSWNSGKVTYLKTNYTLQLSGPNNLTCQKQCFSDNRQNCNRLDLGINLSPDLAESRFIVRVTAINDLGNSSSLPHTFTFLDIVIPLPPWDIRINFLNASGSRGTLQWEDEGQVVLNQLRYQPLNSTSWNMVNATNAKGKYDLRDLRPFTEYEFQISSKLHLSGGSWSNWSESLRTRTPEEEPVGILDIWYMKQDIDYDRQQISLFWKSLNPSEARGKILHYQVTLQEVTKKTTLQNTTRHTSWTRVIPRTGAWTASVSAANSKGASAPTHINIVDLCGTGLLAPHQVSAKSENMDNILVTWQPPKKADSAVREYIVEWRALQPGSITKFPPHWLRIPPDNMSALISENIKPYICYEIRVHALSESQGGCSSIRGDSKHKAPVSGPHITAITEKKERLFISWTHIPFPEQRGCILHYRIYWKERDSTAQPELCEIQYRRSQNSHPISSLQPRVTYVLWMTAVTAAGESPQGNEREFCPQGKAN

Row | Binder | ELISA mIL-12RB2/control
28 | B1 | 1.14
29 | B2 | 1.1
30 | B3 | 1.31
31 | B4 | 1
32 | B5 | 1.22
33 | B6 | 0.988
34 | B7 | 1.89
35 | B8 | 1.07
36 | B9 | 1.64
37 | B10 | 0.927
38 | B11 | 1.23
39 | B12 | 0.828
40 | B13 | 0.984
41 | B14 | 1.07
42 | B15 | 1.39
43 | B16 | 1.19
44 | B17 | 1.85
45 | B18 | 1.01
46 | B19 | 0.967
47 | B20 | 0.999
48 | B21 | 1.06
49 | B22 | 1.19
50 | B23 | 1.03
51 | B24 | 1.07
52 | B25 | 0.945
53 | B26 | 1.11
54 | B27 | 1.05

target: T1, biotinylated recombinant human IL-12Rβ2; experiment: BLI, P.E., off-rate ranking

Row | Binder | Response | koff
55 | B1 | 0.612 | 0.00508 s⁻¹
56 | B2 | 0.47 | 0.00479 s⁻¹
57 | B3 | 0.605 | 0.00485 s⁻¹
58 | B4 | 0.293 | 0.00324 s⁻¹
59 | B5 | 0.508 | 0.00422 s⁻¹
60 | B6 | 0.31 | 0.00369 s⁻¹
61 | B7 | 0.487 | 0.00453 s⁻¹
62 | B8 | 0.352 | 0.00324 s⁻¹
63 | B9 | 0.493 | 0.00496 s⁻¹
64 | B10 | 0.339 | 0.00302 s⁻¹
65 | B11 | 0.53 | 0.00353 s⁻¹
66 | B12 | 0.296 | 0.00243 s⁻¹
67 | B13 | 0.294 | 0.00274 s⁻¹
68 | B14 | 0.745 | 0.0374 s⁻¹
69 | B15 | 0.427 | 0.00361 s⁻¹
70 | B16 | 0.438 | 0.00328 s⁻¹
71 | B17 | 0.475 | 0.00413 s⁻¹
72 | B18 | 0.5 | 0.00404 s⁻¹
73 | B19 | 0.652 | 0.00598 s⁻¹
74 | B20 | 0.205 | 0.00275 s⁻¹
75 | B21 | 0.149 | 0.00247 s⁻¹
76 | B22 | 0.416 | 0.00443 s⁻¹
77 | B23 | 0.282 | 0.00297 s⁻¹
78 | B24 | 0.279 | 0.00311 s⁻¹
79 | B25 | 0.515 | 0.00379 s⁻¹
80 | B26 | 0.759 | 0.00443 s⁻¹
81 | B27 | 0.482 | 0.00494 s⁻¹
